# Read-outs that look alike come from different tables or passages of the source.
substance,measurement,setting,value
"SYK: SYK (K375R, K517R)",other,ubiquitination at K375,changes
same,other,ubiquitination at K517,changes
"SYK: SYK (Y525F, Y526F)",other,phosphorylation at Y525,no change
same,other,phosphorylation at Y526,no change

# Source: PMC8342987
